The source of these data is patent publication US8071547B2, “Compositions of alpha-fetoprotein and inducers of apoptosis for the treatment of cancer” (Constab Pharmaceutical, Inc., priority 2006, dated 2011).

Where two headings read alike, the source gives them in different places.

For data set [1] the following is noted: in the fetus; cited from earlier work.
In data set [2] the test system is cancer cells. To be noted: literature; cited from earlier work.
Data set [3] deals with monoclonal antibody to HAFP. Kind of data set: Membrane EIA Alpha-fetoprotein test. It counts as binding. To be noted: compared to human AFP sample. The method, then:
(§1) PAFP extracted by the methods detailed above was analyzed using two different immune-enzyme kits in order to detect the presence of PAFP in the extraction obtained from the methods detailed above. PAFP samples were compared to AFP isolated from human serum and amniotic fluid. Initially, samples were subjected to the membrane EIA Alpha-fetoprotein test (catalog #410-1, IND Diagnostic Inc., Vancouver, Canada) which incorporates a monoclonal antibody to HAFP. […] A second test kit incorporating a polyclonal antibody to HAFP (catalog number T-8456, AFP-EIA-BEST-Strip, Vector-BEST, Novosibirsk, Russia) was then used to assay the presence of PAFP in the extraction.

Data set [4] relates to polyclonal antibody to HAFP. Kind of data set: AFP-EIA-BEST-Strip test. It counts as binding. The method, then: as §1
Data set [5] deals with cancer cells. In words: Comparison of AFP properties: anticancer activity (Table 1). To be noted: applicant's studies (Examples 4 to 8). The source says: The present invention involves the use of exogenous alpha-fetoprotein (AFP) acting as a carrier or transporter of apoptosis-inducing agents directly to cancer cells resulting in the apoptosis of the cancer cells. U.S. Pat. Nos. 6,630,445 and 6,534,479 describe the use of recombinant human AFP for conjugation with cytotoxic agents.
(NCBI Blast analysis is available on the world wide web at ncbi.nlm.nih.gov/blast/; Parker, M. H. et al., Protein Expression and Purification, 38:177-183, 2004).

B1: AFP: alpha-fetoprotein, major transport glycoprotein in the fetus (protein, UniProt P02771 19-609, looked up)
Alpha-fetoprotein: RTLHRNEYGIASILDSYQCTAEISLADLATIFFAQFVQEATYKEVSKMVKDALTAIEKPTGDEQSSGCLENQLPAFLEELCHEKEILEKYGHSDCCSQSEEGRHNCFLAHKKPTPASIPLFQVPEPVTSCEAYEEDRETFMNKFIYEIARRHPFLYAPTILLWAARYDKIIPSCCKAENAVECFQTKAATVTKELRESSLLNQHACAVMKNFGTRTFQAITVTKLSQKFTKVNFTEIQKLVLDVAHVHEHCCRGDVLDCLQDGEKIMSYICSQQDTLSNKITECCKLTTLERGQCIIHAENDEKPEGLSPNLNRFLGDRDFNQFSSGEKNIFLASFVHEYSRRHPQLAVSVILRVAKGYQELLEKCFQTENPLECQDKGEEELQKYIQESQALAKRSCGLFQKLGEYYLQNAFLVAYTKKAPQLTSSELMAITRKMAATAATCCQLSEDKLLACGEGAADIIIGHLCIRHEMTPVNPGVGQCCTSSYANRRPCFSSLVVDETYVPPAFSDDKFIFHKDLCQAQGVALQTMKQEFLINLVKQKPQITEEQLEAVIADFSGLLEKCCQGQEQEVCFAEEGQKLISKTRAALGV
Take B1: the halflife in data set [1] is 72 to 120 h.

B2: HAFP: human alpha-fetoprotein (protein, UniProt P02771 19-609, looked up)
Alpha-fetoprotein: RTLHRNEYGIASILDSYQCTAEISLADLATIFFAQFVQEATYKEVSKMVKDALTAIEKPTGDEQSSGCLENQLPAFLEELCHEKEILEKYGHSDCCSQSEEGRHNCFLAHKKPTPASIPLFQVPEPVTSCEAYEEDRETFMNKFIYEIARRHPFLYAPTILLWAARYDKIIPSCCKAENAVECFQTKAATVTKELRESSLLNQHACAVMKNFGTRTFQAITVTKLSQKFTKVNFTEIQKLVLDVAHVHEHCCRGDVLDCLQDGEKIMSYICSQQDTLSNKITECCKLTTLERGQCIIHAENDEKPEGLSPNLNRFLGDRDFNQFSSGEKNIFLASFVHEYSRRHPQLAVSVILRVAKGYQELLEKCFQTENPLECQDKGEEELQKYIQESQALAKRSCGLFQKLGEYYLQNAFLVAYTKKAPQLTSSELMAITRKMAATAATCCQLSEDKLLACGEGAADIIIGHLCIRHEMTPVNPGVGQCCTSSYANRRPCFSSLVVDETYVPPAFSDDKFIFHKDLCQAQGVALQTMKQEFLINLVKQKPQITEEQLEAVIADFSGLLEKCCQGQEQEVCFAEEGQKLISKTRAALGV
With B2, the “Anticancer activity (AFP-mediated delivery of apoptosis-inducing agent bound to cancer cells)” value in the data set on cancer cells [2] is on record as “Yes”.

B3: PAFP: porcine alpha-fetoprotein, butanol-extracted from blood and amniotic fluid of embryos of 3 to 14 weeks gestation (protein, UniProt Q8MJ76 19-610, looked up)
Alpha-fetoprotein: RTMHENAYGIASILDSSQCSAEMNLVDLATIFFAQFVQEATYKEVNQMVKDVLTVIEKSTGSEQPAGCLENQVSVFLEEICHEEEIPEKYGLSHCCSQSGEERHNCFLARKKAAPASIPPFQVPEPVTSCKAYEENRELFMTRYIYEIARRHPFLYAPTILSLAAQYDKIIPPCCKAENAVECFQTKAASITKELRESSLLNQHMCTVMRQFGARTFRAITVTKLSQKFPKANFTEIQKLVLDVAHIHEECCRGNVLECLQDAERVVSYVCSQQDTLSSKIAECCKLPTTLELGQCIIHAENDDKPEGLSPNLNRFLGERDFNQLSSREKDLSMARFTYEYSRRHPKLAVPVILRVAKGYQELLEKCSQSENPLECQDKGEEELEKYIQESQALAKRSCGLFQKLGEYYLQNAFLVAYTKKAPQLTPPELMALTRKMATTGAACCHLSEDRQLACGEGAADLIIGQLCIRHEEMPINPGVGQCCTSSYANRRPCFSSLVLDETYVPPPFSDDKFIFHKDLCQAQGVALQTMKQQFLINLVKQKPQITEEQLEAVIADFSGLLEKCCQGQEQEVCFAEEGPALISKTRASLGV
Turning to B3, in data set [3], the “Reaction with EIA Alpha-fetoprotein test kit” value is recorded as “did not produce a reaction”. The “Reaction with AFP-EIA-BEST-Strip kit” value in data set [4] was “positive reaction”. Also, the “Anticancer activity (AFP-mediated delivery of apoptosis-inducing agent bound to cancer cells)” value in the data set on cancer cells [5] is reported as “Yes”.
